The target of experiment [1] is T1, human alpha2-Antiplasmin (human, UniProt P08697 40-491).
T1 sequence: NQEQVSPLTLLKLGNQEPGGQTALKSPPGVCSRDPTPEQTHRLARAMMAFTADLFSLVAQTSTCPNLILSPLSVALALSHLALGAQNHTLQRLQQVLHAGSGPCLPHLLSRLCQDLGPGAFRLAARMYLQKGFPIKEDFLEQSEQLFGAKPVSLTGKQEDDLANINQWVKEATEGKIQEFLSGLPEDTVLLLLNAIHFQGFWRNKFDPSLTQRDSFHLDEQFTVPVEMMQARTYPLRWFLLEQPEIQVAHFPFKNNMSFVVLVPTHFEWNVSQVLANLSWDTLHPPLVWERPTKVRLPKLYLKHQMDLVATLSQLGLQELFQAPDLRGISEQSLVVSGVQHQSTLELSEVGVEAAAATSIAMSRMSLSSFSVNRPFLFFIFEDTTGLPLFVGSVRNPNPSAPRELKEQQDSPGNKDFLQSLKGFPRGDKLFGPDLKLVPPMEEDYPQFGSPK
Kind of experiment: cell-based or functional assay.

Experiment [2] deals with T2, rabbit alpha2-Antiplasmin (rabbit (Oryctolagus cuniculus)).
T2 chain: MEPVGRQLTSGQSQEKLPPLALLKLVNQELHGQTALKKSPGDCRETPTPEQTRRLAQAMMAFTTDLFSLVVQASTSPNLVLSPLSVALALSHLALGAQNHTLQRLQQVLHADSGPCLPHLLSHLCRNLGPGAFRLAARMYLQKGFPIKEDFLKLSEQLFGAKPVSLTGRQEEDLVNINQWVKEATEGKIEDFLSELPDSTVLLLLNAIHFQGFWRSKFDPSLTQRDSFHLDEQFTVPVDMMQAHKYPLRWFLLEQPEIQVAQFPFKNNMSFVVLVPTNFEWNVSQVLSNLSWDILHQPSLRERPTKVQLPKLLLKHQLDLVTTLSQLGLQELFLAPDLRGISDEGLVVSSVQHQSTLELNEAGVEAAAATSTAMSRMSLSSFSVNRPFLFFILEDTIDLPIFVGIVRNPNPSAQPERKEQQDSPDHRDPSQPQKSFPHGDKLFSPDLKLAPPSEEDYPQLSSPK
Kind of experiment: cell-based or functional assay.

Experiment [3] addresses T3, cynomolgus alpha2-Antiplasmin (cynomolgus (Macaca fascicularis), UniProt P08697 28-491 (human entry)).
T3 chain: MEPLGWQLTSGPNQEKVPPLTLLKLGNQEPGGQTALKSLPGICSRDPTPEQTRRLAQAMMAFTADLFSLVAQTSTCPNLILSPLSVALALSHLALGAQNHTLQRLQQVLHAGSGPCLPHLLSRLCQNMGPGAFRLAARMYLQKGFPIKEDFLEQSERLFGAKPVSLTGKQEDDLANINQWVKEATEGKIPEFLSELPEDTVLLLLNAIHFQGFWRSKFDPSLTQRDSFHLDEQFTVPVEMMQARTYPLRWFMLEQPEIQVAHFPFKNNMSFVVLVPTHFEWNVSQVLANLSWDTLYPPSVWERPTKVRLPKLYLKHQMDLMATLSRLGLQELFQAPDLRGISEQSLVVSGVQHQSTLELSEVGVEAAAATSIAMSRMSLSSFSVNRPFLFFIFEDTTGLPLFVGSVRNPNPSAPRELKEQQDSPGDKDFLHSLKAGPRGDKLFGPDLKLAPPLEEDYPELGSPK
The experiment can be described thus: cell-based or functional assay.

Experiment [4] has as its target T1, human alpha2-Antiplasmin. Kind of experiment: ELISA, coated antigen, 3rd exp. How it is done: (§1) A standard ELISA format was used for analyzing the binding affinity of Fabs of this invention to human and rabbit alpha-2-Antiplasmin, respectively. Antigens were coated to black 384 well Maxisorp microtiter plates (Nunc; catalogue number 460518), diluted to a concentration of 1 μg/ml in 1× Coating Buffer (Candor Bioscience; catalogue number 121125). Plates were incubated overnight at 4° C. After overnight incubation, plates were washed 2× with 50 μl/well using PBS+0.05% Tween 20. Following this, 50 μl/well of blocking buffer (Smart Block; Candor Bioscience; catalogue number 113500) was added and the plates were incubated for 1 hour at room temperature. Afterwards, plates were washed for 3× using […] PBS+0.05% Tween 20 buffer. Fabs of this invention were added at different concentrations in a final volume of 30 μl/well. Plates were incubated for 1 hour at room temperature. Following this incubation step, plates were washed for 3× using 50 μl/well of a PBS+0.05% Tween 20 buffer. For the detection of bound Fabs and full-length antibodies, the anti-Human Lambda Light Chains (Bound and Free)—Peroxidase antibody (Sigma; catalogue number A5175) was diluted by the factor of 1:10.000 in 10% Blocking Buffer. […]
(§2) For measurement, the Infinite f500 reader (Tecan) was used. Measurement mode: Fluorescence; Top reading; Ex 535 nm; Em 590 nm.

Experiment [5] concerns the target T2, rabbit alpha2-Antiplasmin. Kind of experiment: ELISA, coated antigen, 3rd exp. As to the method:
as §1, §2

Experiment [6] deals with T3, cynomolgus alpha2-Antiplasmin. Kind of experiment: ELISA, coated antigen (FIG. 6.1 legend).
The target is the same in experiment [7]. The experiment can be described thus: SPR Biacore T200, antibody captured on protein G chip, A2AP as analyte, 25 C.

B1: TPP-12387 hIgG1 (antibody, V domains shown)
VH: EVQLLESGGGLVQPGGSLRLSCAASGFTFDDYAMSWVRQAPGKGLEWVSAIGTGGGTYYADSVKGRFTISRDNSKNTLYLQMNSLRAEDTAVYYCAREYYDSSGYYHLDYWGQGTLVTVSS
VL: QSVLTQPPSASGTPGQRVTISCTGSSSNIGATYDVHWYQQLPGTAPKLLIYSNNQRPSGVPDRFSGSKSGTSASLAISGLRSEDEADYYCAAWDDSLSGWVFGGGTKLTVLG
notes: Fully human IgG1 lambda from the BioInvent n-CoDeR Fab lambda library; parental lead antibody
What is called EC50 is the concentration that produces a half-maximal response. Read a low EC50 as an effect from little substance. A word on the Kd: it is a measure of binding affinity in units of concentration. High values mean weaker binding, low ones tighter binding. With B1, in the experiment with human alpha2-Antiplasmin [1], the “function blocking activity IC50, 1st exp. (FIG. 5)” value came out at 170 nM; the “function blocking activity IC50, 2nd exp.” value worked out at 180 nM; the “function blocking activity IC50, 3rd exp.” value is 180 nM. In addition, in experiment [2], the “function blocking activity EC50 (FIG. 5 legend)” value was determined as 1.4 nM; the “printed as 'binding activity' in the sentence on function blocking (IC50), 1st exp.” value stood at 14 nM; the “printed as 'binding activity' in the sentence on function blocking (IC50), 2nd exp.” value is 13 nM; the “printed as 'binding activity' in the sentence on function blocking (IC50), 3rd exp.” value turned out to be 15 nM. For the same molecule, in experiment [3], the “function blocking activity IC50, 1st exp. (FIG. 6.2)” value came to 160 nM and the “function blocking activity IC50, 2nd exp.” value came to 160 nM. This molecule showed an EC50 with human alpha2-Antiplasmin [4] of 130 nM. For the same molecule, in experiment [5], the EC50 was 6.2 nM. The EC50 in experiment [6] turned out to be 99 nM. The molecule further displayed a Kd in experiment [7] of 100 nM.

The values are drawn from patent publication US20240010750A1 (Bayer, published 2024).
